US20140356359A1 (RINAT NEUROSCIENCE, published 2014)

Assays:
[1] = target: full-length cyno GHR on transfected HEK293 cells (cynomolgus monkey); experiment: cell-based or functional assay
[2] = target: T1, human GHR (as in Tables 1 and 2) (human, UniProt P10912 49-253, limits assumed); experiment: Biacore, 25 C; 25 C (no asterisk)
T1 sequence: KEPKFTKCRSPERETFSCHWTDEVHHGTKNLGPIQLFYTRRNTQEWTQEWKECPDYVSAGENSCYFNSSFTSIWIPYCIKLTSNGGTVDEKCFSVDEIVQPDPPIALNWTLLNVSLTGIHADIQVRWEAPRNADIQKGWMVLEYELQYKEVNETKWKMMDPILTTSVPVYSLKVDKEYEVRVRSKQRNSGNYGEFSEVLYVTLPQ

[3] = target: T1, human GHR (as in Tables 1 and 2); experiment: Biacore, Fab, 37 C
[4] = target: T1, human GHR (as in Tables 1 and 2); experiment: Biacore, Fab, 25 C
[5] = target: T1, human GHR (as in Tables 1 and 2); experiment: Biacore, IgG2ΔA, 25 C
[6] = target: T2, human GHR, his-tagged monomer of amino acids 31-235 of the extracellular domain (human, UniProt P10912 49-253); experiment: Biacore 2000, antibody captured on anti-human Fc, GHR as analyte, 25 C
T2 construct: not shown: his tag
T2 sequence: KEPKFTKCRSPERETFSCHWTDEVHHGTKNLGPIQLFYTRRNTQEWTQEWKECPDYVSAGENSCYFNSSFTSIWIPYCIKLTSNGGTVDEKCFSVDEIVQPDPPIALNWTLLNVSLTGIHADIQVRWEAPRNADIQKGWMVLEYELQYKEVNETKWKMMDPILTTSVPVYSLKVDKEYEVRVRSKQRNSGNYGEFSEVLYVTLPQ
Experimental: (§1) An anti-human Fc sensor chip was prepared by activating all flow cells of a Biacore™ CM4 sensor chip with a 1:1 (v/v) mixture of 400 mM ethyl-N-(3-diethylaminopropyl)carbodiimide (EDC, Biacore™) and 100 mM N-hydroxysuccinimide (NHS, Biacore™) for 7 minutes, at a flow rate of 10 μL/min. […] All flow cells were blocked with 100 mM ethylenediamine in 150 mM borate buffer pH 8.5 for 7 minutes at 10 μL/min.
(§2) Antibodies were captured onto downstream flow cells (flow cells 2, 3 and 4) at 4 μg/mL at a flow rate of 10 μL/min for 1 minute. Different antibodies were captured on each flow cell. Flow cell 1 was used as a reference surface. Following capture of antibodies, analyte (buffer, human GHR or cyno GHR) was injected at 30 μL/min on all flow cells for two minutes. […] After the analyte injection, dissociation was monitored for 30 minutes (for the 400 nM GHR cycle) or 30 seconds (all other cycles) followed by regeneration of all flow cells with two 30-second injections of 75 mM phosphoric acid. A 5-membered dilution series of GHR was analyzed using this method, where the top concentration was 400 nM and the dilution factor was 3-fold. Buffer cycles were collected with both 30 minute and 30 second dissociation times for double-referencing purposes. The double-referenced sensorgrams were fit globally to a simple 1:1 Langmuir with mass transport binding model.
(§3) The experiments were performed at 25° C. using a running buffer of 10 mM HEPES, 150 mM NaCl, 0.05% (v/v) Tween-20™, pH 7.4.

[7] = target: T3, cyno GHR, his-tagged monomer of amino acids 31-235 of the extracellular domain (cynomolgus monkey, UniProt Q9XSZ1 49-253 (Papio anubis entry)); experiment: as above
T3 construct: not shown: his tag
T3 chain: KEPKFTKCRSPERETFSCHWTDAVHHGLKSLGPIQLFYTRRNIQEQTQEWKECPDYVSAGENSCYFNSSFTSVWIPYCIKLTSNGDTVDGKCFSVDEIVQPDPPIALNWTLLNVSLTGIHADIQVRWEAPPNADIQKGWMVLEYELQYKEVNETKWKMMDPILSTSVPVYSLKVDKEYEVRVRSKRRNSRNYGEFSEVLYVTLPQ
Experimental: as §1, §2, §3

[8] = target: T2, human GHR, his-tagged monomer of amino …; experiment: Biacore 2000, antibody captured on anti-human Fc, GHR as analyte, 25 C, replicate
Experimental: as §1, §2, §3

[9] = target: T3, cyno GHR, his-tagged monomer of amino …; experiment: as above
Experimental: as §1, §2, §3

[10] = target: T1, human GHR (as in Tables 1 and 2); experiment: Biacore, 37 C (asterisk)
[11] = target: T4, hGHR-hFc fusion protein (R&D Systems Catalog#1210-GR) (human, UniProt P10912 19-264); experiment: Biacore T200, hGHR-hFc captured on anti-human Fc, Fab as analyte, 37 C
T4 construct: bought; also called hGHR/Fc; human GHR/hFc; not shown: human Fc of the bought fusion protein
T4 sequence: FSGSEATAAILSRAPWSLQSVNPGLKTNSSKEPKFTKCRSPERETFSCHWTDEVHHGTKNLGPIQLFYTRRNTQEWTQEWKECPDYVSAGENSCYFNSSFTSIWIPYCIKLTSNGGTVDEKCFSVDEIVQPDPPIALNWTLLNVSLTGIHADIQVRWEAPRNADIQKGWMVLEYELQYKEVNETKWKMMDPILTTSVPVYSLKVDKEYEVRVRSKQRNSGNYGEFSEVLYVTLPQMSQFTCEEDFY
Experimental: as §1, with “EDC” for “ethyl-N-(3-diethylaminopropyl)carbodiimide (EDC, Biacore™)”, “NHS” for “N-hydroxysuccinimide (NHS, Biacore™)”
The kinetics assay was run using a methodology with varying dissociation times as described in Katsamba et al., supra. […] Flow cell 1 was used as a reference surface. Following capture of hGHR-hFc, analyte (buffer, SS1 Fab or Ab13 Fab) was injected at 30 μL/min on all flow cells for two minutes. After the analyte injection, dissociation was monitored for 30 minutes (400 nM Fab cycle) or 60 seconds (all other cycles) followed by regeneration with two 30-second injections of 75 mM phosphoric acid. A 5-membered dilution series of Fab was analyzed using this method, where the top concentration was 400 nM and the dilution factor was 3-fold. Buffer cycles were collected at both 30 minute and 60 second dissociation times for double-referencing purposes. The double-referenced sensorgrams were fit globally to a simple 1:1 Langmuir with mass transport binding model (with a local Rmax parameter for each flow cell).
(§4) The experiments were performed at 37° C. using a running buffer of 10 mM HEPES, 150 mM NaCl, 0.05% (v/v) Tween-20™, pH 7.4.

[12] = target: T2, human GHR, his-tagged monomer of amino …; experiment: Biacore T200, Fab captured on anti-human kappa, GHR as analyte, 37 C
Experimental: as §1, with “kappa” for “Fc”, “EDC” for “ethyl-N-(3-diethylaminopropyl)carbodiimide (EDC, Biacore™)”, “NHS” for “N-hydroxysuccinimide (NHS, Biacore™)”
(§5) The kinetics assay was run using a methodology with varying dissociation times as described in Katsamba et al., supra. Fabs were captured onto downstream flow cells (flow cells 2, 3 and 4) at 2 μg/mL at a flow rate of 10 μL/min for 2 minutes. Different Fabs were captured on each flow cell. Flow cell 1 was used as a reference surface. Following capture of fabs, analyte (buffer, human GHR or cyno GHR) was injected at 30 μL/min on all flow cells for two minutes. […] A 6-membered dilution series of GHR was analyzed using this method, where the top concentration was 400 nM and the dilution factor was 3-fold. Buffer cycles were collected with both 30 minute and 60 second dissociation times for double-referencing purposes. The double-referenced sensorgrams were fit globally to a simple 1:1 Langmuir with mass transport binding model.
as §4

[13] = target: T3, cyno GHR, his-tagged monomer of amino …; experiment: as above
Experimental: as §1, with “kappa” for “Fc”, “EDC” for “ethyl-N-(3-diethylaminopropyl)carbodiimide (EDC, Biacore™)”, “NHS” for “N-hydroxysuccinimide (NHS, Biacore™)”
as §5, §4

Sequence of full-length cyno GHR on transfected HEK293 cells (cynomolgus monkey) (Q9XSZ1 other isoform, or with tags, fused parts or gaps limits assumed): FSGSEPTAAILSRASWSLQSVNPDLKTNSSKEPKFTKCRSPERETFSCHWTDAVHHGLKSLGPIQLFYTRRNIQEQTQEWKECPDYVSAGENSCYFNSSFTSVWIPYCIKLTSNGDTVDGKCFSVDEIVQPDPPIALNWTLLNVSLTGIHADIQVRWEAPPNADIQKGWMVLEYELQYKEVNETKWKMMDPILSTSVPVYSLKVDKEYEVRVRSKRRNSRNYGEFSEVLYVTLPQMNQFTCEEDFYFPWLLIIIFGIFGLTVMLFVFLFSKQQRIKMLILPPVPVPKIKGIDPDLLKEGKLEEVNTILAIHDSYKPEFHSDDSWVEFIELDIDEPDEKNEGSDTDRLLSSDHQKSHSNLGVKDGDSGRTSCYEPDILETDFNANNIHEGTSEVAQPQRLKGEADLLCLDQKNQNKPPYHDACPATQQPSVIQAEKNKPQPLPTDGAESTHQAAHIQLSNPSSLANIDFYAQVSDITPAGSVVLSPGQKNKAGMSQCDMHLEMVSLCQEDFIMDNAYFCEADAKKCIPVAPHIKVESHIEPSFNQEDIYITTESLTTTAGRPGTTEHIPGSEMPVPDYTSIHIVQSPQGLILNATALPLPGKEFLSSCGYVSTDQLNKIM

Work on “human growth hormone (from UniProt P01241 27-217) (ligand)” yielded an STAT5 phosphorylation, fluorescent signal (Ave); 4.5 nM GH (fluorescent signal) [1] of 562 and an STAT5 phosphorylation, fluorescent signal (ave); 4.5 nM GH (fluorescent signal) [1] of 847.

B1: SS4 Fab (Fab, V domains shown)
VH: EVQLVESGGGLVKPGGSLRLSCAASGFTFSDAWMDWVRQAPGKGLEWVAEIRSKANNHATYYAESVKGRFTISRDDSKNTLYLQMNSLKTEDTAVYYCTLYRDYWGQGTLVTVSS
VL: EIVLTQSPGTLSLSPGERATLSCTATSSVSSSYLHWYQQKPGQAPRLLIYSTSNLASGIPDRFSGSGSGTDFTLTISRLEPEDFAVYYCHQYHRSTPTFGGGTKVEIK
notes: Fab
For B1, the Kd [2] was 28.4 nM, the Kd [3] was 124 nM and the Kd [4] was 28.4 nM.

B2: SS3 hIgG2Δa (antibody, V domains shown)
VH: EVQLVESGGGLVKPGGSLRLSCAASGFTFSDAWMDWVRQAPGKGLEWVAEIRSKANNHATYYAESVKGRFTISRDDSKNTLYLQMNSLKTEDTAVYYCTLFRDYWGQGTLVTVSS
VL: EIVLTQSPGTLSLSPGERATLSCTATSSVSSSYLNWYQQKPGQAPRLLIYSTSNLASGIPDRFSGSGSGTDFTLTISRLEPEDFAVYYCHQYHRFTPTFGGGTKVEIKR
notes: also called SS3 IgG2ΔA
B2 showed a Kd [5] of 1.7 nM.

B3: SS1 hIgG2Δa (antibody, V domains shown)
VH: EVQLVESGGGLVKPGGSLRLSCAASGFTFSDAWMDWVRQAPGKGLEWVAEIRSKANYHATYYAESVKGRFTISRDDSKNTLYLQMNSLKTEDTAVYYCTLIRDYWGQGTLVTVSS
VL: EIVLTQSPGTLSLSPGERATLSCTATSSVSSSYLNWYQQKPGQAPRLLIYSTSNLASGIPDRFSGSGSGTDFTLTISRLEPEDFAVYYCHQYHRSTPTFGGGTKVEIKR
notes: humanized IgG; also called SS1 (replicate)
Molecule B3 has a Kd [6] of 1 nM, a koff [6] of 7.7e-05 s⁻¹ and a kon [6] of 74000 M⁻¹ s⁻¹. The “t 1/2” value [6] was 2.5 h, the Kd [7] was 1.3 nM and the koff [7] was 0.0001 s⁻¹. For the same molecule, the kon [7] was 81000 M⁻¹ s⁻¹, the “t 1/2” value [7] was 1.85 h and the Kd [8] was 0.8 nM. The koff [8] was 6.4e-05 s⁻¹, the kon [8] was 77000 M⁻¹ s⁻¹ and the “t 1/2” value [8] was 3 h. The Kd [9] was 1.2 nM, the koff [9] was 0.00011 s⁻¹ and the kon [9] was 89000 M⁻¹ s⁻¹. For the same molecule, the “t 1/2” value [9] was 1.78 h.

B4: SS4 IgG2ΔA (antibody, V domains shown)
VH: EVQLVESGGGLVKPGGSLRLSCAASGFTFSDAWMDWVRQAPGKGLEWVAEIRSKANNHATYYAESVKGRFTISRDDSKNTLYLQMNSLKTEDTAVYYCTLYRDYWGQGTLVTVSS
VL: EIVLTQSPGTLSLSPGERATLSCTATSSVSSSYLHWYQQKPGQAPRLLIYSTSNLASGIPDRFSGSGSGTDFTLTISRLEPEDFAVYYCHQYHRSTPTFGGGTKVEIK
notes: IgG2ΔA
With B4 the Kd [5] was 43.1 nM.

B5: TM1 Fab (Fab, V domains shown)
VH: EVQLVESGGGLVKPGGSLRLSCAASGFTFSDAWMDWVRQAPGKGLEWVAEIRSKANYHATYYAESVKGRFTISRDDSKNTLYLQMNSLKTEDTAVYYCTLIRDYWGQGTLVTVSS
VL: EIVLTQSPGTLSLSPGERATLSCTATSSVSSWYLHWYQQKPGQAPRLLIYSTSNLASGIPDRFSGSGSGTDFTLTISRLEPEDFAVYYCHQYHRSTPTFGGGTKVEIK
notes: Fab
With B5 the Kd [10] was 3.4 nM and the Kd [3] was 3.4 nM.

B6: SS3 Fab (Fab, V domains shown)
VH: EVQLVESGGGLVKPGGSLRLSCAASGFTFSDAWMDWVRQAPGKGLEWVAEIRSKANNHATYYAESVKGRFTISRDDSKNTLYLQMNSLKTEDTAVYYCTLFRDYWGQGTLVTVSS
VL: EIVLTQSPGTLSLSPGERATLSCTATSSVSSSYLNWYQQKPGQAPRLLIYSTSNLASGIPDRFSGSGSGTDFTLTISRLEPEDFAVYYCHQYHRFTPTFGGGTKVEIK
notes: Fab
B6 gave a Kd [10] of 1.99 nM and a Kd [3] of 1.99 nM.

B7: SS1 Fab (Fab, V domains shown)
VH: EVQLVESGGGLVKPGGSLRLSCAASGFTFSDAWMDWVRQAPGKGLEWVAEIRSKANYHATYYAESVKGRFTISRDDSKNTLYLQMNSLKTEDTAVYYCTLIRDYWGQGTLVTVSS
VL: EIVLTQSPGTLSLSPGERATLSCTATSSVSSSYLNWYQQKPGQAPRLLIYSTSNLASGIPDRFSGSGSGTDFTLTISRLEPEDFAVYYCHQYHRSTPTFGGGTKVEIK
notes: Fab
For B7, the Kd [11] was 1 nM, the koff [11] was 0.000359 s⁻¹ and the kon [11] was 374000 M⁻¹ s⁻¹. The “t 1/2” value [11] was 0.537 h, the Kd [12] was 1.6 nM and the koff [12] was 0.000215 s⁻¹. The kon [12] was 138000 M⁻¹ s⁻¹, the “t 1/2” value [12] was 0.895 h and the Kd [13] was 3.2 nM. The koff [13] was 0.000576 s⁻¹, the kon [13] was 182000 M⁻¹ s⁻¹ and the “t 1/2” value [13] was 0.333 h. It also gave a Kd [10] of 1.56 nM and a Kd [3] of 1.6 nM.

B8: TM9 Fab (Fab, V domains shown)
VH: EVQLVESGGGLVKPGGSLRLSCAASGFTFSDAWMDWVRQAPGKGLEWVAEIRSKANYHATYYAESVKGRFTISRDDSKNTLYLQMNSLKTEDTAVYYCTLIRDYWGQGTLVTVSS
VL: EIVLTQSPGTLSLSPGERATLSCTATSSVSSSYLHWYQQKPGQAPRLLIYSTSNLASGIPDRFSGSGSGTDFTLTISRLEPEDFAVYYCHQYHRGTPTFGGGTKVEIK
notes: Fab
In the case of B8, the Kd [10] is reported as 3.3 nM and the Kd [3] is reported as 3.3 nM.
